Reference: PMC4379015, “Chemical and Thermal Unfolding of a Global Staphylococcal Virulence Regulator with a Flexible C-Terminal End” (PLoS ONE, 2015)

Legend:
[1] = tested on: rSarA (Staphylococcus aureus strain Newman); experiment: EMSA; settings: Gel shift buffer not stated (performed as reported earlier); rSarA kept in buffer A: 20 mM phosphate pH 8.0, 100 mM NaCl, 5% glycerol; binding temperature not …
[2] = target: the molecule itself; experiment: SEC; analytical gel filtration of rSarA (20 uM) without denaturant; apparent mass from the elution volumes of monomeric marker proteins

Molecule | K half [1] [nM] | stoichiometry N [2]
hla DNA | 286 | 
rSarA (a C-terminally histidine-tagged SarA) (natural protein, the cloning attached eight additional residues at the C-terminal end of SarA; Leu 125 and Glu 126 of rSarA lie in the tag; also called recombinant SarA; not shown: His6 (eight additional residues including six histidine residues), C-terminal, kept) MAITKINDCFELLSMVTYADKLKSLIKKEFSISFEEFAVLTYISENKEKEYYLKDIINHLNYKQPQVVKAVKILSQEDYFDKKRNEHDERTVLILVNAQQRKKIESLLSRVNKRITEANNEIEL |  | 2
